Results reported in publication doi:10.1101/2025.09.18.675241 (bioRxiv, 2025).
Positions count from the first letter of the chain named. In names and notes the source's numbering stands. Blank lines part the entries; values can stand above or below the molecule they belong to.

Columns and labels:
[1] = target: FAM171A2 ectodomain (K30-T315), Fc cleaved off (human) (UniProt A8MVW0); experiment: SEC-SAXS
[2] = target: FAM171A2 ectodomain (K30-T315), Fc cleaved off (human) (UniProt A8MVW0); experiment: AUC
[3] = target: FAM171A2 ectodomain (K30-T315), Fc cleaved off (human) (UniProt A8MVW0); experiment: SEC-MALS
FAM171A2 Ecto-AP (human) = FAM171A2 Ecto-AP (human) (UniProt A8MVW0); experiment: ELISA
AUC [4] = target: the molecule itself; experiment: AUC
AUC [5] = target: the molecule itself; experiment: AUC; remark: listed apart in the source
SEC-MALS = target: the molecule itself; experiment: SEC-MALS
SEC = target: the molecule itself; experiment: SEC
FAM171A1 Ecto-AP = target: T1, FAM171A1 Ecto-AP (human, UniProt Q5VUB5 23-303); experiment: ELISA
T1 sequence: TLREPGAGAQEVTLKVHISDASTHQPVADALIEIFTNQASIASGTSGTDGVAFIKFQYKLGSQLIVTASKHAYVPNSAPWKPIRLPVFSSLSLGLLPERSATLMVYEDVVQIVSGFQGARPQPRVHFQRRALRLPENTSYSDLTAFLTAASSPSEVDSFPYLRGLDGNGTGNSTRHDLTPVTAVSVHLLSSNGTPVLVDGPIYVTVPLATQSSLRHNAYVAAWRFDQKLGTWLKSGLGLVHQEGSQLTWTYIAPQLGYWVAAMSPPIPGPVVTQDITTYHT

stoichiometry N [1]: 3
percent of the mixture as trimer [2]: 75%
stoichiometry N [2]: 3
stoichiometry N [3]: 3
Molecule: FAM171A2 ectodomain (K30-T315), Fc cleaved off (from UniProt A8MVW0 30-315) (domain or fragment)

Kd (FAM171A2 Ecto-AP (human)): 389 nM
Molecule: FAM171A2 Ecto-Fc (from UniProt A8MVW0 30-315) (Fc fusion)

B1: FAM171A1 ectodomain (T23-T303), Fc cleaved off (domain or fragment)
chain: T1 sequence
modifications: four N-linked glycosylation sites occupied by Man5GlcNAc2 (from HEK293S GnTI- cells)
stoichiometry N (AUC [4]): 2.6 monomers
stoichiometry N (AUC [5]): 2.7 monomers
stoichiometry N (SEC-MALS): 3

B2: FAM171A1 ectodomain L255N (domain or fragment)
chain: T1 sequence with L233N
modifications: introduced N-linked glycosylation site
stoichiometry N (SEC): 3

Kd (FAM171A1 Ecto-AP): 9 ± 2 nM
B3: FAM171A1 Ecto-Fc (Fc fusion)
chain: T1 sequence

B4: FAM171A1 ectodomain Y241S/L255N (domain or fragment)
chain: T1 sequence with Y219S, L233N
modifications: two introduced N-linked glycosylation sites
stoichiometry N (SEC): 3

B5: FAM171A1 ectodomain Y241S (domain or fragment)
chain: T1 sequence with Y219S
modifications: introduced N-linked glycosylation site
stoichiometry N (SEC): 3
